The results in this text go back to doi:10.1101/2021.11.29.470334 (bioRxiv, 2021).

The data set deals with the molecule itself. Description: cryo-EM structure.

B1: Kir6.2 from Mus musculus (mmKir6.2) H175K mutant, as the Kir6.2 subunit of H175K_(cryoEM) (natural protein)
chain: LSRKGIIPEEYVLTRLAEDPAEPRYRTRERRARFVSKKGNCNVAHKNIREQGRFLQDVFTTLVDLKWPHTLLIFTMSFLCSWLLFAMVWWLIAFAHGDLAPGEGTNVPCVTSIHSFSSAFLFSIEVQVTIGFGGRMVTEECPLAILILIVQNIVGLMINAIMLGCIFMKTAQAKRRAETLIFSKHAVITLRHGRLCFMLRVGDLRKSMIISATIHMQVVRKTTSPEGEVVPLHQVDIPMENGVGGNGIFLVAPLIIYHVIDSNSPLYDLAPSDLHHHQDLEIIVILEGVVETTGITTQARTSYLADEILWGQRFVPIVAEEDGRYSVDYSKFGNTIKVPTPLCTARQLDEDRSLLDALTLASSRGPLRKRSVAVAKAKPKFSISPDSLS
Turning to B1, the binding result is recorded as “binds”.
